Consider 13 molecules from patent US20230192860A1 (Bristol-Myers Squibb, published 2023).

Numbering of substitutions follows the chain as printed.

First the molecules themselves.
B1: P1-068759 (antibody, human IgG1, kappa, V domains shown)
VH: EVQLVESGGGLVQPGKSLRLSCAASGFTLEDEAMHWVRQAPGKGLEWVSGIDWNSENIGYADSVKGRFTISRDNAKNSLYLQMNSLRTEDTALYYCAKVPGYSGGWIDAEDDWGQGTMVTVSS
VL: not shown
notes: also called P1-068759-9; 029 progeny
B2: P1-068736 (antibody, human IgG1, kappa, V domains shown)
VH: QVQLVESGGGVVQPGRSLRLSCAASGFTFSEYAMHWVRQAPGKGLEWVAIDWYDGSNKDYADSVKGRFTISRDNSKNTLYLQMNSLRAEDTAVYYCARDSGFYDSYYFDDWGQGTLVTVSS
VL: EIVLTQSPATLSLSPGERATLSCRASQSVSSSYLAWYQQKPGQAPRLLIYDASNRATGIPARFSGSGSGTDFTLTISSLEPEDFATYYCQQYNSYPYTFGQGTKLEIKR
notes: IgG1.3
B3: P1-068752 (antibody, human IgG1, kappa, V domains shown)
VH: B2 VH with E31S, I50E, D51I, D110E
VL: B2 VL
notes: IgG1.3
B4: P1-068744 (antibody, human IgG1, kappa, V domains shown)
VH: B2 VH with I50H, D51I, D59Y, Y60E, D104E, D110E
VL: B2 VL
notes: IgG1.3; also called P1-068744-7
B5: P1-068757 (antibody, human IgG1, kappa, V domains shown)
VH: B1 VH with D52N, N57E
VL: not shown
notes: IgG1.3; also called P1-068757-9
B6: P1-069061 (antibody, human IgG1, kappa, V domains shown)
VH: B1 VH with E32Y, D52N, E56A, N57E
VL: not shown
notes: IgG1.3
B7: P1-068765 (antibody, human IgG1, kappa, V domains shown)
VH: B1 VH with L29D, E32Y, D52N, N57E
VL: not shown
notes: IgG1.3; also called P1-068765-10
B8: P1-068759 (antibody, human IgG1, kappa, V domains shown)
VH: B1 VH
VL: not shown
notes: IgG1.3; also called P1-068759-9
B9: P1-068775 (antibody, human IgG1, kappa, V domains shown)
VH: B1 VH with N57E, G104H
VL: not shown
notes: IgG1.3; also called P1-068775-8
B10: P1-068771 (antibody, human IgG1, kappa, V domains shown)
VH: B1 VH with D52N, E56H, N57E
VL: not shown
notes: IgG1.3; also called P1-068771-10
B11: P1-069059 (antibody, human IgG1, kappa, V domains shown)
VH: B1 VH with E32Y, D52N, E56D, N57H
VL: not shown
notes: IgG1.3
B12: P1-068773 (antibody, human IgG1, kappa, V domains shown)
VH: B1 VH with E32Y, E56D
VL: not shown
notes: IgG1.3
B13: P1-068769 (antibody, human IgG1, kappa, V domains shown)
VH: B1 VH with D52N, E56D, N57H
VL: not shown
notes: IgG1.3

T2 sequence (Q9H7M9 other isoform, or with tags, fused parts or gaps limits assumed): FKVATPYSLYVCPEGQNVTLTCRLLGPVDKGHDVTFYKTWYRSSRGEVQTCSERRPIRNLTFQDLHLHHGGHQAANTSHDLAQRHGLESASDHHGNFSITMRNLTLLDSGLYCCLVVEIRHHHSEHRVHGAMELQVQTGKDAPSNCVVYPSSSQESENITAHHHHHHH

In the first experiment the target is T1, hVISTA-ECD 6-His tag (human, UniProt Q9H7M9 33-193).
T1 construct: also called monovalent hVISTA-ECD; human VISTA
T1 sequence (Q9H7M9 other isoform, or with tags, fused parts or gaps limits assumed): as above
Description: SPR, Ab on Protein A, hVISTA analyte, pH 6.0.
Molecule B1 showed a Kd of 96 nM, a koff of 0.058 s⁻¹ and a kon of 600000 M⁻¹ s⁻¹.

The next experiment concerns the target T2, monovalent hVISTA-ECD (amino acids 32-193 of SEQ ID NO: 1 with a 7xHis tail) (human, UniProt Q9H7M9 33-193).
T2 construct: analyte of the SPR assays; also called huVISTA-His; human VISTA-ECD
Description: SPR 37C, Ab on Protein A, hVISTA-ECD 50-5 nM, pH 6.0, average. The procedure: Binding of several preparations of each of the ‘029 progeny clones and of the parent ‘029 antibodies, formatted as IgG1.3 antibodies, to human VISTA at pH 6.0 and 7.4 was measured by Surface plasmon resonance (SPR). SPR analysis was performed to measure koff and KD binding affinity measurements for VISTA Abs at acidic and neutral pHs using a Biacore® T100 instrument (GE Healthcare). […] Antibodies were diluted to 25 nM in PBST pH 7.4, and were captured across active biosensor flow cells at 5 ul/min for 60 seconds. A concentration series of 50 - 5 nM monovalent hVISTA-ECD (SEQ ID NO: 325) was prepared in pH 7.4 and 6.0 running buffers, and was injected over the captured antibodies at 40 ul/min to measure association and dissociation. Two 15 second injections of 10 mM glycine pH 1.5 were used to regenerate the Protein A capture surface between assay cycles. Rate constants ka (kₒₙ) and kd (koff) were derived from reference flow cell and 0 nM blank-subtracted sensorgrams, and were fit to a 1:1 binding model in Biacore® T200 Evaluation Software v.2.0. The affinity constant, KD was calculated as the ratio of rate constants koff/kₒₙ for each VISTA antibody.
As to B2, the dissociation constant (Kd) was 1.1 nM, the koff came to 0.0095 s⁻¹ and the kon stood at 8.4e+06 M⁻¹ s⁻¹.
For B3, in that order: 5.6 nM, 0.034 s⁻¹ and 6.1e+06 M⁻¹ s⁻¹.
For B4, in that order: 1.3 nM, 0.0018 s⁻¹ and 1.3e+06 M⁻¹ s⁻¹.
For B5, in that order: 19 nM, 0.017 s⁻¹ and 890000 M⁻¹ s⁻¹.
With B6, the dissociation constant (Kd) was 2.5 nM, the koff was 0.0011 s⁻¹ and the kon was found to be 430000 M⁻¹ s⁻¹.
For B7, the Kd is 19 nM, the koff was 0.007 s⁻¹ and the kon amounted to 370000 M⁻¹ s⁻¹.
Turning to B8, the Kd was found to be 60 nM, the koff came out at 0.08 s⁻¹ and the association rate constant (kon) worked out at 1.3e+06 M⁻¹ s⁻¹.
For B9, in that order: 23 nM, 0.047 s⁻¹ and 1.8e+06 M⁻¹ s⁻¹.
For B10, in that order: 25 nM, 0.018 s⁻¹ and 760000 M⁻¹ s⁻¹.
For B11, in that order: 4.8 nM, 0.0016 s⁻¹ and 340000 M⁻¹ s⁻¹.
The molecule B12 came in with a Kd of 9.4 nM, a koff of 0.0029 s⁻¹ and an on-rate constant (kon) of 300000 M⁻¹ s⁻¹.
For B13, in that order: 55 nM, 0.04 s⁻¹ and 810000 M⁻¹ s⁻¹.
